Biological target: human CCR5 receptor (hCCR5) (human), P51681
Assay: inhibition of gp120CM235/sCD4 binding to Cf2Th/synR5 cells (FIG. 4B)

Chain of human CCR5 receptor (hCCR5) (human), P51681 (P51681 whole entry): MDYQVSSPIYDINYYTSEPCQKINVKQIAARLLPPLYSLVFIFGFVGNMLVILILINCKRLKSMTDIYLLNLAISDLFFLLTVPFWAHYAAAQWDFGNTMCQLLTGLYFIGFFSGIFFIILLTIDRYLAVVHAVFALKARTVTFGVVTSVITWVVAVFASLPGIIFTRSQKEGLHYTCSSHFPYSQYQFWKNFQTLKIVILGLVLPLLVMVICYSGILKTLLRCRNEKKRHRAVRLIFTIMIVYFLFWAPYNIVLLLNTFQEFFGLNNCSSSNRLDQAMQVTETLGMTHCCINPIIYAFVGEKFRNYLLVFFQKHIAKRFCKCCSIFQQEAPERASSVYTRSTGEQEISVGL

| Binder | IC50 | percent inhibition of specific binding |
| --- | --- | --- |
| ASTTTNYT (modifications not checked) [DAPTA (Dala1-peptide T-amide)] | 0.32 nM | > 80% |

Biological target: human CCR5 receptor (hCCR5) (human), P51681
Assay: inhibition of gp120BaL/sCD4 binding to Cf2Th/synR5 cells (FIG. 4A)

| Binder | IC50 |
| --- | --- |
| ASTTTNYT (modifications not checked) [DAPTA (Dala1-peptide T-amide)] | 0.055 nM |

Biological target: human CCR5 receptor (hCCR5) (human), P51681
Assay: inhibition of gp120CM235/sCD4 binding to GHOST CD4.CCR5 cells (FIG. 4C)

| Binder | IC50 |
| --- | --- |
| ASTTTNYT (modifications not checked) [DAPTA (Dala1-peptide T-amide)] | 0.051 nM |

Biological target: human CCR5 receptor (hCCR5) (human), P51681
Assay: inhibition of gp120/sCD4 complex binding to CCR5-expressing Cf2Th cells by competing peptide

| Binder | EC50 |
| --- | --- |
| NSNYS (modifications not checked) | 0.5 nM |
| NSSYT (modifications not checked) | 0.2 nM |
| NSSYR (modifications not checked) | 0.04 nM |
| NSEYR (modifications not checked) | 0.08 nM |
| SSEYR (modifications not checked) | 0.3 nM |
| TTSYR (modifications not checked) | 0.1 nM |
| TISYR (modifications not checked) | 0.4 nM |
| YSSYR (modifications not checked) | 0.6 nM |
| NTSYR (modifications not checked) | 0.1 nM |
| TTSYT (modifications not checked) | 0.05 nM |
| TSNYS (modifications not checked) | 0.2 nM |
| SSTYR (modifications not checked) | 0.1 nM |
| NNRYR (modifications not checked) | 0.2 nM |
